We go through 1 substance from patent US20230183314A1.

The target in assay [1] is human prostate specific membrane antigen (PSMA) (human) (UniProt Q04609). Nature of the assay: flow cytometry, 22Rv1 cells (low PSMA expression) stained with the PE conjugate; number printed over the white bar.
The target is the same in assay [2]. Nature of the assay: flow cytometry, LNCaP cells (high PSMA expression) stained with the PE conjugate; number printed over the white bar.

human prostate specific membrane antigen (PSMA) (human), sequence (Q04609 whole entry): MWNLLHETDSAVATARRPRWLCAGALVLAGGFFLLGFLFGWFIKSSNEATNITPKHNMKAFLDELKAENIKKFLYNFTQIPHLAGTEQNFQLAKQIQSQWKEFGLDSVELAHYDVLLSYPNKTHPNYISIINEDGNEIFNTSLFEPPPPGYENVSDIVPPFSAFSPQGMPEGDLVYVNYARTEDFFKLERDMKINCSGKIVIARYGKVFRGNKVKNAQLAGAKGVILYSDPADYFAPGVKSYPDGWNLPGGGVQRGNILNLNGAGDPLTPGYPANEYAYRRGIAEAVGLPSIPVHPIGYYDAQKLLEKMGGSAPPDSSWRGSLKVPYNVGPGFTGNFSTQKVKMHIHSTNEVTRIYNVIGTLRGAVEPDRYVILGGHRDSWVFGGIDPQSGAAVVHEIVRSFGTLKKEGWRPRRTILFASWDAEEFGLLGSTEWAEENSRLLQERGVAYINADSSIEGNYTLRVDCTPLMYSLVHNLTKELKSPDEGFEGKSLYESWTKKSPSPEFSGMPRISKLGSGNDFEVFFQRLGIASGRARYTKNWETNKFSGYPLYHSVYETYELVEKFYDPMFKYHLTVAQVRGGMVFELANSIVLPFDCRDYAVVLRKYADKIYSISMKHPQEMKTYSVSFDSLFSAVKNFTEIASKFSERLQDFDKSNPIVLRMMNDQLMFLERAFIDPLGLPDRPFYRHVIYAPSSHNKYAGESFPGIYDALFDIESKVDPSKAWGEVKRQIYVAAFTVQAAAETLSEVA

Consider “Anti PSMA antibody-PE conjugate from Biolegend (clone LNI-17 catalog #342504)”, for which the MFI amounted to 13.7 in assay [1] and 263 in assay [2].
